Measured values as given in paper PMC9482650, “Quantitative fragmentomics allow affinity mapping of interactomes” (Nature Communications, 2022).

Experiments:
Assay in all cases: holdup assay
Set-up in all cases: key: below the threshold = too weak to quantify, mostly under pKd 3.1 to 4
Conditions in all cases: plain residues with an end cap or a label only (N-terminal biotin on a linker: ahx)
[1] = target: GRIP2_3, Q9C0E4
[2] = target: T1, PARD3B_1, Q8TEW8
T1 sequence (Q8TEW8 196-299, limits assumed, looked up): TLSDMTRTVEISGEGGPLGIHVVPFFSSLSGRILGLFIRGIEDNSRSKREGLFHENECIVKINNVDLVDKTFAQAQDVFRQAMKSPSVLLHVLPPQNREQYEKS

[3] = target: T2, MPDZ_5, O75970
T2 sequence (O75970 695-796, limits assumed, looked up): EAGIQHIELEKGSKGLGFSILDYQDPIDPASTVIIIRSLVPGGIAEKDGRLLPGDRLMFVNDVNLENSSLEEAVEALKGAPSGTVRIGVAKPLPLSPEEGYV

[4] = target: T3, FRMPD1, Q5SYB0
T3 sequence (Q5SYB0 52-145, limits assumed, looked up): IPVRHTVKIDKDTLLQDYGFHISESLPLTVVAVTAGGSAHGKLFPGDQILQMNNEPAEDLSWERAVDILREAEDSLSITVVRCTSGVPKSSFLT

[5] = target: FRMPD2_3, Q68DX3
[6] = target: MAGI2_3, Q86UL8
[7] = target: TJP2_1, Q9UDY2
[8] = target: MAGI1_1, Q96QZ7
[9] = target: SCRIB_2, Q14160
[10] = target: DLG2_3, Q15700
[11] = target: T4, LIN7A, O14910
T4 sequence (O14910 103-200, limits assumed, looked up): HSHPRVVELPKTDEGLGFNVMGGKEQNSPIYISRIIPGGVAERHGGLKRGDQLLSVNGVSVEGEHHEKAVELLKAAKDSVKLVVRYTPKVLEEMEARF

[12] = target: GRASP, Q7Z6J2
[13] = target: Inadl_1, Q8NI35
[14] = target: SCRIB_1, Q14160
[15] = target: T5, DLG3_1, Q92796
T5 sequence (Q92796 125-227, limits assumed, looked up): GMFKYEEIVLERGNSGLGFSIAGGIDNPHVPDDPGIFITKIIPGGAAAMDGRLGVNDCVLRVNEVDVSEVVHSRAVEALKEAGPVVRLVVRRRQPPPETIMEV

[16] = target: PDLIM1, O00151
[17] = target: GRID2IP_1, A4D2P6
[18] = target: T6, DFNB31_2, Q9P202
T6 sequence (Q9P202 274-371, limits assumed, looked up): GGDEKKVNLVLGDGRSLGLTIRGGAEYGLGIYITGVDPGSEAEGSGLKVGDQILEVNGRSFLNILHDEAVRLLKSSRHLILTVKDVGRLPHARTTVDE

[19] = target: CASK, O14936
[20] = target: IL16_3, Q14005
[21] = target: T7, RADIL, Q96JH8
T7 sequence (Q96JH8 971-1071, limits assumed, looked up): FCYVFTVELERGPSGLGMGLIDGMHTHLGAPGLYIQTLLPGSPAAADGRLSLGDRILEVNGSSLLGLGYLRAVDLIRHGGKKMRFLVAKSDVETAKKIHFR

[22] = target: T8, NHERF3_1, Q5T2W1
T8 sequence (Q5T2W1 4-100, limits assumed, looked up): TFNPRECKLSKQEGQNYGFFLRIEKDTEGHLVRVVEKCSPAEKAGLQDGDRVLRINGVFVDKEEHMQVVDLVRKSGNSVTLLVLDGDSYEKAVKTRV

[23] = target: MAGI2_2, Q86UL8
[24] = target: GIPC2, Q8TF65
[25] = target: Inadl_5, Q8NI35
[26] = target: Inadl_10, Q8NI35
[27] = target: T9, DFNB31_1, Q9P202
T9 sequence (Q9P202 135-233, limits assumed, looked up): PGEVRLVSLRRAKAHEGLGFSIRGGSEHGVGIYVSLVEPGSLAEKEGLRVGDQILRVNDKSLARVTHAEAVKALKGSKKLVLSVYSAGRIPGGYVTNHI

[28] = target: T10, MPDZ_10, O75970
T10 sequence (O75970 1624-1722, limits assumed, looked up): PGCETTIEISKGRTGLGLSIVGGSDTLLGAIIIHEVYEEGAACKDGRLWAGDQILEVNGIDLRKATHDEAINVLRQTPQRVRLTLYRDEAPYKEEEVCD

Chain of GIPC2, Q8TF65 (Q8TF65 112-203): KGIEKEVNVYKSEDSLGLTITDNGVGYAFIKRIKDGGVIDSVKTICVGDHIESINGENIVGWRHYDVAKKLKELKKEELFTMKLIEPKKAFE
Chain of PDLIM1, O00151 (O00151 1-87): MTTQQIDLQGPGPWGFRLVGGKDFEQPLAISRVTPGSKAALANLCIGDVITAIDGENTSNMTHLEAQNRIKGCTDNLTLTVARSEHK
Chain of IL16_3, Q14005 (Q14005 1107-1207): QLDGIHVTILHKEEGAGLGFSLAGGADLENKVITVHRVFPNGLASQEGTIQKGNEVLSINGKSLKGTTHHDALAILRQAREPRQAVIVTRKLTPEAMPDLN
Chain of Inadl_1, Q8NI35 (Q8NI35 113-229): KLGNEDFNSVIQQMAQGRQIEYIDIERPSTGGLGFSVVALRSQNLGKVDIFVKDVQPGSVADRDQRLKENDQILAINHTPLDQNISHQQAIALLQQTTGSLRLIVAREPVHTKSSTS
Chain of MAGI1_1, Q96QZ7 (Q96QZ7 1-106): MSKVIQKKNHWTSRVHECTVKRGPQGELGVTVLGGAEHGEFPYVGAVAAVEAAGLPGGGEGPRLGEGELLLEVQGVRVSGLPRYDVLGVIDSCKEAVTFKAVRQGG
Chain of GRASP, Q7Z6J2 (Q7Z6J2 96-193): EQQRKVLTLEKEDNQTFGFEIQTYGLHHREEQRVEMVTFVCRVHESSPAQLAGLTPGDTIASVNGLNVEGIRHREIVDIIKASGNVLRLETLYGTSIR
Chain of GRID2IP_1, A4D2P6 (A4D2P6 1-87): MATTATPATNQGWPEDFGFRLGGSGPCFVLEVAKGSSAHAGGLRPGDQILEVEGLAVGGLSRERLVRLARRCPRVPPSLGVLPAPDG
Chain of CASK, O14936 (O14936 487-570): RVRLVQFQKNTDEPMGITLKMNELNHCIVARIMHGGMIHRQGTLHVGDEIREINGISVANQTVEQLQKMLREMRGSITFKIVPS
Chain of FRMPD2_3, Q68DX3 (Q68DX3 1073-1166): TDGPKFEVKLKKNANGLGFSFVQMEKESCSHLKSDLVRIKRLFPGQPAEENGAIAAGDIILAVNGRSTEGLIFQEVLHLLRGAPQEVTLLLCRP
Chain of MAGI2_2, Q86UL8 (Q86UL8 410-522): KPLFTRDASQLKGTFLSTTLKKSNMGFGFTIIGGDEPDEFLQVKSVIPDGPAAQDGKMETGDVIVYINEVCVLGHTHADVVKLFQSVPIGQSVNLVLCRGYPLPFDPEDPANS
Chain of SCRIB_1, Q14160 (Q14160 718-814): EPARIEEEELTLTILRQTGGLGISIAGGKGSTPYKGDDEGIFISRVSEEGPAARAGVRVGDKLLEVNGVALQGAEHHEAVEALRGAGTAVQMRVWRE
Chain of MAGI2_3, Q86UL8 (Q86UL8 600-682): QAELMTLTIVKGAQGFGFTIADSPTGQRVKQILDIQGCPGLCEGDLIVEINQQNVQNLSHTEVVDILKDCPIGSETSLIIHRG
Chain of SCRIB_2, Q14160 (Q14160 857-960): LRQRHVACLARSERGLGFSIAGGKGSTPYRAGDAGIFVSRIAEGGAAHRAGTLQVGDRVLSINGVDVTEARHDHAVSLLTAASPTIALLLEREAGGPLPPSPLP
Chain of TJP2_1, Q9UDY2 (Q9UDY2 24-128): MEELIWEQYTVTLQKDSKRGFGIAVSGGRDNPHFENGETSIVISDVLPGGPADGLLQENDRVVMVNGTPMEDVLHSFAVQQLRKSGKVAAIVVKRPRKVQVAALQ
Chain of Inadl_5, Q8NI35 (Q8NI35 673-780): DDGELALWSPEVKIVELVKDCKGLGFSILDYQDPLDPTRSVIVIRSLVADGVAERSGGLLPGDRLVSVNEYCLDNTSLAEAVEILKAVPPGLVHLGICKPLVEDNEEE
Chain of GRIP2_3, Q9C0E4 (Q9C0E4 238-339): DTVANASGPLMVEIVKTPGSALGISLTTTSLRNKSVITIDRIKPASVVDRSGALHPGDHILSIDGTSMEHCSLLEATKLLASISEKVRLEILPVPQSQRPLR
Chain of Inadl_10, Q8NI35 (Q8NI35 1673-1763): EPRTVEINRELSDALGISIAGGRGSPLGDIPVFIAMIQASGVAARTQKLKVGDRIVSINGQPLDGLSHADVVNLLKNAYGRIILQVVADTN

NRKREIFSNF [NHERF2, Q15599]
pKd [1]: below the threshold
pKd [2]: below the threshold
pKd [3]: below the threshold
pKd [4]: below the threshold
pKd [5]: below the threshold
pKd [6]: below the threshold
pKd [7]: below the threshold
pKd [8]: below the threshold
pKd [9]: below the threshold
pKd [10]: below the threshold
pKd [11]: below the threshold
pKd [12]: below the threshold
pKd [13]: below the threshold
pKd [14]: below the threshold
pKd [15]: below the threshold
pKd [16]: below the threshold
pKd [17]: below the threshold
pKd [18]: below the threshold
pKd [19]: below the threshold
pKd [20]: below the threshold
pKd [21]: below the threshold
pKd [22]: below the threshold
pKd [23]: below the threshold
pKd [24]: below the threshold
pKd [25]: below the threshold
pKd [26]: below the threshold
pKd [27]: below the threshold
pKd [28]: below the threshold

RRRKRKRTYL [HPV49-L2, P36762]
pKd [1]: below the threshold
pKd [2]: 3.72
pKd [3]: below the threshold
pKd [4]: below the threshold
pKd [5]: below the threshold
pKd [6]: below the threshold
pKd [7]: 5.68
pKd [8]: below the threshold
pKd [9]: below the threshold
pKd [10]: 3.54
pKd [11]: below the threshold
pKd [12]: 4.37
pKd [13]: below the threshold
pKd [14]: 3.67
pKd [15]: below the threshold
pKd [16]: 3.52
pKd [17]: below the threshold
pKd [18]: below the threshold
pKd [19]: below the threshold
pKd [20]: below the threshold
pKd [21]: below the threshold
pKd [22]: 4.86
pKd [23]: 5.33
pKd [24]: below the threshold
pKd [25]: 4.05
pKd [26]: below the threshold
pKd [27]: 3.58
pKd [28]: 3.94

RAVEEEESRF [PSCDBP, O60759]
pKd [1]: below the threshold
pKd [2]: 4.06
pKd [3]: below the threshold
pKd [4]: below the threshold
pKd [5]: below the threshold
pKd [6]: below the threshold
pKd [7]: below the threshold
pKd [8]: below the threshold
pKd [9]: below the threshold
pKd [10]: below the threshold
pKd [11]: below the threshold
pKd [12]: below the threshold
pKd [13]: below the threshold
pKd [14]: below the threshold
pKd [15]: below the threshold
pKd [16]: below the threshold
pKd [17]: below the threshold
pKd [18]: below the threshold
pKd [19]: below the threshold
pKd [20]: below the threshold
pKd [21]: below the threshold
pKd [22]: 4.34
pKd [23]: below the threshold
pKd [24]: below the threshold
pKd [25]: below the threshold
pKd [26]: below the threshold
pKd [27]: below the threshold
pKd [28]: below the threshold
